Experimental data from article PMC9774250.

Assays:
[1] = system: apo-YgaV (His-tagged) (Escherichia coli (WT genomic DNA; BW25113?)); assay: EMSA; details: EMSA: 50 nM probe, 25 mM Tris-HCl pH 8.0, 100 mM NaCl, 2 mM MgCl2, 6% glycerol, 50 mg/mL heparin (so in the source), room temperature 30 min, footprint: 100 nM DNA …
[2] = system: heme-YgaV (His-tagged, hemin-reconstituted) (Escherichia coli (WT genomic DNA; BW25113?)); assay: EMSA; details: heme; 10 mM Na2S (oxidized); EMSA: 50 nM probe, 25 mM Tris-HCl pH 8.0, 100 mM NaCl, 2 mM MgCl2, 6% glycerol, 50 mg/mL heparin (so in the source), room temperature 30 min; footprint: 100 nM DNA …

katG promoter showed a binding signal ([1]; 1 mM DTT (reduced), scale: fold higher YgaV concentration for shift than ygaV promoter) of 20.
With ygaVP promoter the binding signal (fold higher EC50 than DTT-reduced) ([1]; 10 mM Na2S (oxidized)) was 5 and the binding signal (fold higher EC50 than DTT-reduced) [2] was 5.
